# Source: the nanobody polyreactivity screen of Harvey et al. (2022)
# Assay: yeast display, Sf9 membrane polyspecificity reagent, FACS + sequencing; frameworks hold sequencing errors
# Procedure, shortened: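 Nanobodies from a synthetic yeast display library (Saccharomyces cerevisiae BJ5465), induced 36–48 hours with galactose, were stained 1 hour at 4 °C with 10% biotinylated, detergent-solubilized Sf9 membrane reagent, enriched on streptavidin microbeads, then FACS-sorted. Anti-HA (expression) and streptavidin (reagent binding) fluorescence set low and high (top ~1%) gates. Polyreactivity labels come from the gate of origin. Genes were colony-PCR amplified, MiSeq 2 × 250 sequenced and filtered by CDR length.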
sequence,measurement,value
QVQLVESGGGLVQAGGSLRLSCAASGRIFSSYAMGWYRQAPGKERELVAAISKSGGNTYYADSVKGRFTISRDNAKNTVYLQMNSLKPEDTAVYYCDAVAPYTLYFWLYYWGQGTHVTVSS,polyreactivity (PSR sort gate),high polyreactivity
QVQLVESGGGLVQSGGSLRLSSAAYGFIFPGNAMGWSRQAPGKEREMVAAISNSGSRTYYADSVKGRFTISRDHAKNTVYLQMNSLKPEDTAVYYCNADVHNRGWPYDYWGQGTQVTVSS,polyreactivity (PSR sort gate),low polyreactivity
QVQLVESGGGLVQAGGSLRLSCAASGGIFQGNVMGWYRQAPGKERELVASIRRGGSTNYADSVKGRFTISRDNAKNTVYLQMNSLKPEDTAVYYCSARKWVGYHVWPLREYNYWGQGTQVTVSS,polyreactivity (PSR sort gate),low polyreactivity
QVQLVESGGGLVQAGGSLRLSCAASGSIFADYAMGWYRQAPGKERELVAAISYNGDSTYYADSVKGRFTISRDNAKNTVYLQMNSLKPEDTAVYYCNAAARRYTSVFYTSGYTFDYWGQGTQVTVSS,polyreactivity (PSR sort gate),low polyreactivity
QVQLVESGGGLVQAGGSLRLSCAASGSTFHRNAMGWYRQAPGKERELVAAITSGGSTNYADSVKGRFTISRDNAKNTVYLQMNSLKPEDTAVYYCAKDYRHYNRGWYDYWGQGTQVTVSS,polyreactivity (PSR sort gate),low polyreactivity
QVQLVESGGGLVQAGGSLSLSCAASGSIFRINAMGWYRQATGKERELVARISWRAGNTYYADSVKGRFTISRDNAKNTVYLQMNSLKPEDTAVYYCNADYYVTGLYGPGYDYWGQGTKVTVSS,polyreactivity (PSR sort gate),low polyreactivity
QVQLVESGVGLVQAGGSLRLSCAASGSTFYRNTMGWYRQAPGKERELVAAINTSGASTYYADSVKGRFTISRDNAKNTVYLQMNSLKPEDTAVYYCAALYRGYTGGYKFYYWGQGTQVTVSS,polyreactivity (PSR sort gate),high polyreactivity
QVQLVESGGGLVQAGGSLRLTCAASGLIFYDNMGWYRQEPGKQRELVAAITVSGGATYYADSVKGRFTISRDNAKNTVYLQMNSLKTEDTAVFYCARELLSPTYQRWYYYWGQGTQVTVSS,polyreactivity (PSR sort gate),low polyreactivity
QVQLVESGGGLVQAGGSLRLSCAASGNIFSRYAMGWYRKAPGKERELVAAISKSGGSTYYADSVKGRFTISRDNAKNTVYLQMNSLKPEDSAVYYCAAYSFFLGYPEFDYWGQGTQVTVSS,polyreactivity (PSR sort gate),high polyreactivity
QVQLVESGGGLVQAGGSLRLSCAASGSIFAKYAMGWYRQAPGKERELVAAISSGGSTYYADSVKGRFTISRDNAKNTVYLQMNSLKPEDTAVYYCNKPYGKETRYTFKVWYEYNYWGQGTQVTVSS,polyreactivity (PSR sort gate),low polyreactivity
QVQLVESGGGLVQAGGSLRLSCAASGSILDYNTMGWYIQAPGKERELVAAIDDDSTYYADSVKGRFTISRDNAKNTVYLQMNSLKPEDTAVYYSAVDWYYGDTYGYYYWYDYWGQGTQVTVSS,polyreactivity (PSR sort gate),high polyreactivity
QDQHVESGGGLVQAGGSLRLSCAASGYILRCNTMGWSRKAPGKERELVAAISSRGGITNYADSVKGRFTFSRDNAKNTVYLQMNSRKPEDTAVYYCATYWQYRYDYWGQGTQVTVSS,polyreactivity (PSR sort gate),low polyreactivity
QVQLVDSGGGLVQAGGNLRLSCAPSGYTFGKYAMGWYRQAPGKERELVAGISSRGGSTYYADSVKGRFTISRDNAKNTVYFQMNSLKPEDTAVYYCAAVAYTGGPRKLGFYYWGQGTQVTVSS,polyreactivity (PSR sort gate),high polyreactivity
QVQDVESGGGLVQAGGSLRLSCAAYGFIFYSYAMGWYRQAPGKERELVAAISTGDGSTTFADSVKGRFTISRDNAKNSVYLQMNSLKPEDTAVYYCNVKYRACYRTDFEYWGQGTQVTVSS,polyreactivity (PSR sort gate),low polyreactivity
QVQLVESGGGLVQAGGSLRLSSAASGRTFSGYAMGWYRQAPGKERELVASISGSGSSTYYADSVKGRFTISRDNAMNTVYLQMNSLKPEDTAVYYCAKRSFYYRIQTGYNYWGQGTQVTVSS,polyreactivity (PSR sort gate),high polyreactivity
QVQLVESGGGLVQAGGSLSLSCAATGNTFYINNMGWYRQAPGKEREFVAAITWSGGPTYYADSVKGRFTISRDNAKNTVYLQMNSLKPEDTAVYYCAARRSGRWTGWTFYYWGQGTQVTVSS,polyreactivity (PSR sort gate),high polyreactivity
QVQLVESGGGLVQAGGSLRLSCAASGRIFWRYAMGWYRQAPGKERELVAAITGRTGSTNYADSVKGRFTISRDNAKNTVYLQMNSLKPEDTAVYYCAAAHHRWTGLYPSGYEFDYWGQGTQVTVSS,polyreactivity (PSR sort gate),low polyreactivity
QVQLVESGGGLVQAGGSLRLSCAASGITFLPYTMGWYRQAPGKERELVATISWNGGSTYYADSVKGRFTISRDNAKNTVYLQMNSLKPEDTAVYYCAARQVQAPRSIGFYYWGQGTQVTVSS,polyreactivity (PSR sort gate),high polyreactivity
QVQLVESGGGLVQAGGSLRLSCAASGFTFYWYAMGWYRQAPGKERELVAAITSGGGTTYYADSVKGRFTISRDNAKNTVYLQMNSLKPEDTAVYYCAADSYTYPWIERDYWGQGTQVTVSS,polyreactivity (PSR sort gate),high polyreactivity
QVQLVESGGGLVQAGGSLRLSCAASGRIFVSNARGWYRQSPGKECELVAAISKSAARTAYADSVKGRFTISRDTAKNTVYLQMNSLKPEDTAVYYCNADRYRLYGESKGEGNYWGQGTQVTVSS,polyreactivity (PSR sort gate),high polyreactivity
QVQLVDSGGGFVQAGGSLRLSCAASGSILAQKAMGWYRQAPGKERELVAAISWSGGRTYYADSVKGRFTISLDNAKNYVYLQMNCLKPEDTAVYYCNKVRRASTVHPDNYWGQGTQVTVSS,polyreactivity (PSR sort gate),high polyreactivity
QVQLVESGGGLVQAGGSLRLSCAASGIIFLENAMGWFRQAPGKESELVAGINGGGRTDYADSVKGRFTISRDNAKHTVYLQMNSLKPEDTAVYYCAAESSWYSPDVNYCGQGTQVTVSS,polyreactivity (PSR sort gate),low polyreactivity
QVQLVESGGGLVQPGGSLRLSCAASGSTFSGYTMGWYRQAPGKERELVASISSGVSTYYADSVKGRFTISRDNAKNTVYLQMNSLKPEDTAVYYCAADSVGDYGYQVYASWGYEDEYWGQGTQVTVSS,polyreactivity (PSR sort gate),low polyreactivity
QVQLVESRGGLVQSGGSLRLSCAASGSIFEIYHMGRYRQAPGNERELVASIRTSGGSTYYADSVKGRFTISRDNAKNTVYLQMNSLKPEDTAVYYCAAVGRSYYGHDYWGQGTQVTVSS,polyreactivity (PSR sort gate),low polyreactivity
QVQHVESGGGLVQAGGSLRLSCAASGGIFVANAMGWYRQAPGKERELVAAISRSGGSTYYADSVKGRFTISRDNAKNTVYLQMNSLKPEDTAVYYCAAKSRRQYTVGLTSDYWGQGTQVTVSS,polyreactivity (PSR sort gate),low polyreactivity
QVQLVESGGGLVQAGGSLRLSCAASGRTLPKYVMGCYRQAPGKERELVDAISSSGDSTYYADSVKGRFTISRDNAKNTVYLQMNSLKPEDTAVYYCAKYDRNTYGYWGQGTQVTVSS,polyreactivity (PSR sort gate),low polyreactivity
QVQLVESGGGLVQAGGSLRLSCDASGFTFGRNAMGWYRQAPGKERELVAAISSSGGTTYYADSVKGRFTISRDNAKNTVYLQMNSLKPEDTAVYYCAAGYYYRYDYWGQGTQVTVSS,polyreactivity (PSR sort gate),high polyreactivity
QVQLVESGGGLVQAGGSLRLSCAASGRILASYAMGWYRQAPGKEWELVAAIRYRGSTSYADSVKGRFTISRDNAKNTVYLQMNSLKPEDTGVYYCAAKWHVRGRGARYRYDYDFWGQGTQVTVSS,polyreactivity (PSR sort gate),low polyreactivity
QVQLVESGGGLVQAGGSLRLSCAASGIIFDWYAMGWYRQAPGKERELVAAISDSGDTTYYADSVKGRFTISRDNAKNTVYLQMNSLKPEDTAVYYCNARVIGIYGYWGQGTQVTVSS,polyreactivity (PSR sort gate),high polyreactivity
QVQLVESGGALVQAGGSLRLSCAASGSTFVYYAMGWYRQAPGKERELVAAISRSGTSTYYADSVKGRFTISRDNAKNTVYLQMNSLKPEDTAVYYCNARKKQGYDYWGQGTQVTVSS,polyreactivity (PSR sort gate),high polyreactivity
QVQLVESGGGLVQAGGSLRLSCAASGNIFQRYAMGWYRQAPGKVRELVAAISGNGGNSFYADSVKGRFTISRDNAKYTVYLQMNSLKPEDTAVYYCNTVYVVYGFDYWGQGTQVTVSS,polyreactivity (PSR sort gate),high polyreactivity
QVQLVDSGGGLVQAGGSLRLSCAASGLIIWRNAMGWYRQAPGKERELVAAITYSGSRTYYADSVKGRFTISRDNAKNTVYLLMNSLKPEDTAVYYCNADYYWYPYEDDNWGQGTQVTVSS,polyreactivity (PSR sort gate),low polyreactivity
QDQHVESAGGLVQAAGSLRLSCAASGSTFWYYVMGWSRQAPGQVRELVAAISTRGDSTYYADSVKGRFTISRDNANNSVYLQMYSLKPEDTAVYYCAKSRQSSGRVRFDYWGQGTQVTVSS,polyreactivity (PSR sort gate),low polyreactivity
QVQLVESGGGLVQAGGSLRLSCAASGSIFAYNAMGWYRQAPGKERELVAAISVGGGRTYYADSVKGRFTISRDNAKNTVYLQMNSLKPEDTAVYYCAASSTAKRYYWGQGTQVTVSS,polyreactivity (PSR sort gate),high polyreactivity
QVQLVESGGGLVQAGGSLRLSCAASGSTFWPYAMGWYRQAPGKERELVAAITSSGGSTYYADSVKGRFTISRDNAKNTVYLQMNSLKPEETAVYYCAADWSNLGAYDYWGQGTQVTVSS,polyreactivity (PSR sort gate),low polyreactivity
QVQLVESGGGLVQAGGSLRLSCAASGINFRYYAMGWYRQATGKERELVADISSDGGTYYADSVKGRFKISRDNAQNTVYLQMNSLKPEDTAVYYCAADYQFYWHYYYWGQGTQVTVSS,polyreactivity (PSR sort gate),high polyreactivity
QVQHVESGGGLVQAGGSLRLSCAASGIIIKFYAMGWYRKAPVKERELVATITFSSGTTYYADSVKGRFTMSRDNAKTTVYFQMNSLKPEDTAVYYCAASTLPAWPYDGPAGPRYDYWGQGTQVTVSS,polyreactivity (PSR sort gate),low polyreactivity
QVQLVESGGGLVQAGGSLRLSCAASGSTLTSNAMGWYRQAPGKERELVAAIRSGGSTNYADSVKGRFTISRDNAKNTVYLQMNSLKPEDTAVYYCNKDFLWQGYGYSRVSYDYWGQGTQVTVSS,polyreactivity (PSR sort gate),low polyreactivity
QVQLVESGGCLVQAGGSLRLSCAATGRIFKRYVMGWYRQAPGKERELVAAISQRGGSTNYADSVKGRFTISRDNAKNTVYLQMNSLKPEDTAVYYCAAGFFSRYDYWGQGTQVTVSS,polyreactivity (PSR sort gate),high polyreactivity
QVQLVESGGGLVQAGGSLRLSCAASGLIFVINARGWYRQAPGKERELVAAIDYSGGSTYYADSVKGRFTISRDNAKNTVYLQMNSLKPEDTAVYYCAASKIGYWGDYFRYYYWGQGTQVTVSS,polyreactivity (PSR sort gate),low polyreactivity
QVQLVESGGGLVQAGGSLRLSCAASGFIFPYYAMGWYRQAPGKERELVAAISGSGGSTYYADSVKGRFTISRDNANYTVYLQMNSLKPEDTAVYYCAASARRLNMGYWGQGTQVTVSS,polyreactivity (PSR sort gate),high polyreactivity
QVQLVESGGGLVQAGGSLRLSCDASGFTFVYYAMGCYRQAPGKERELVAAISGRGGSTYYADSVKGRFTISRDNAKNTVYLQMNSLKPEDTAVYYCATTYSWYYVPYKTHIYYYWGQGTQVTVSS,polyreactivity (PSR sort gate),low polyreactivity
QVKHVESGGGLVKAGGSLRLSCPAAGRIIDKYAMGWYRQSPGKERELVATITSSGGSTYYADSVKGRFTISRDTAMNNVYLQMNSLKPEDTAVYYCDALDRTGYSRGETRSLYYFWGQGTQVTVSS,polyreactivity (PSR sort gate),low polyreactivity
